Test results as given in patent US20220251182A1, “AGENTS WHICH INHIBIT GADS DIMERIZATION AND METHODS OF USE THEREOF” (Technion Research & Development Foundation Limited, priority 2017, published 2022).
Numbering of substitutions follows the chain as printed. Numbers in names are those of the source. Square brackets hold non-standard residues; d marks the D form. Ends that are not written are not given here. pY = N[C@@H](Cc1ccc(OP(=O)(O)O)cc1)C(=O)O

T1: monomeric Gads SH2 (Homo sapiens, UniProt O75791)
T1 construct: The SH2 only construct encoded residues Q54-Q153 of Gads, and was tagged at the N-terminus with either MBP or His; made in house; host or cells: E. coli BL21 codon-plus
T1 sequence (O75791 54-153): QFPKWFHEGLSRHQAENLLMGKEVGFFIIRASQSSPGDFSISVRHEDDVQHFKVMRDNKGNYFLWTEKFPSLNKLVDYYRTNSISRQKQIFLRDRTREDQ

T2: N-terminally twin-strep-tagged full length human Gads-GFP F92D (human, UniProt O75791 1-330)
T2 construct: Expressed in dG32 T cells and in Gads-deficient murine BMMCs; also called Gads F92D; F92D-reconstituted; not shown: N-terminal twin-strep tag; C-terminal monomeric GFP (A206K) from pMIGR
T2 sequence: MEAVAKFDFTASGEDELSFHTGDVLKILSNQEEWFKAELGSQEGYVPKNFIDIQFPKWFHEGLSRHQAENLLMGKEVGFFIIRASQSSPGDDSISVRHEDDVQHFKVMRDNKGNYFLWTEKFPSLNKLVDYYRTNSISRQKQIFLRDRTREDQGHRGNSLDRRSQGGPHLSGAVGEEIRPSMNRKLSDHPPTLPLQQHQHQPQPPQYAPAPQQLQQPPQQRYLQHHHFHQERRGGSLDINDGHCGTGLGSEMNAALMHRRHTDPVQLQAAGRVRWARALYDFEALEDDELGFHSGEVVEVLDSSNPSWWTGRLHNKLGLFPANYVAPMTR

B1: MBP-Gads SH2 F92A/R109A (other, not shown: large carriers; small tags and cut ends)
chain: MQFPKWFHEGLSRHQAENLLMGKEVGFFIIRASQSSPGDASISVRHEDDVQHFKVMADNKGNYFLWTEKFPSLNKLVDYYRTNSISRQKQIFLRDRTREDQ
notes: Double mutant in the context of MBP-Gads SH2; also called F92A/R109A SH2 mutant
B2: MBP-Gads SH2 R109A (other)
chain: B1 chain with A40F
notes: Point mutant in the context of MBP-Gads SH2; not shown: N-terminal MBP tag and its linker from pMAL-C5x (NEB)
B3: MBP-Gads SH2 R109D (other, not shown: large carriers; small tags and cut ends)
chain: B1 chain with A40F, A57D
notes: Point mutant in the context of MBP-Gads SH2
B4: MBP-Gads SH2 (SH2 only construct, residues Q54-Q153 of Gads), wild type (protein)
chain: T1 sequence (O75791 54-153)
B5: MBP-Gads lacking the N-terminal SH3 (ΔN-SH3 Gads, Δ2-53) (other, not shown: large carriers; small tags and cut ends)
chain: MQFPKWFHEGLSRHQAENLLMGKEVGFFIIRASQSSPGDFSISVRHEDDVQHFKVMRDNKGNYFLWTEKFPSLNKLVDYYRTNSISRQKQIFLRDRTREDQGHRGNSLDRRSQGGPHLSGAVGEEIRPSMNRKLSDHPPTLPLQQHQHQPQPPQYAPAPQQLQQPPQQRYLQHHHFHQERRGGSLDINDGHCGTGLGSEMNAALMHRRHTDPVQLQAAGRVRWARALYDFEALEDDELGFHSGEVVEVLDSSNPSWWTGRLHNKLGLFPANYVAPMTR
notes: Deletion of residues 2-53; also called Gads ΔN; Gads lacking the N-SH3
B6: MBP-Gads lacking the linker (Δlinker Gads, Δ154-267) (other)
chain: MEAVAKFDFTASGEDELSFHTGDVLKILSNQEEWFKAELGSQEGYVPKNFIDIQFPKWFHEGLSRHQAENLLMGKEVGFFIIRASQSSPGDFSISVRHEDDVQHFKVMRDNKGNYFLWTEKFPSLNKLVDYYRTNSISRQKQIFLRDRTREDQQAAGRVRWARALYDFEALEDDELGFHSGEVVEVLDSSNPSWWTGRLHNKLGLFPANYVAPMTR
notes: Deletion of residues 154-267; also called lacking the linker domain; not shown: N-terminal MBP tag and its linker from pMAL-C5x (NEB)
B7: MBP-Gads lacking the C-terminal SH3 (ΔCSH3 Gads, Δ274-328) (other)
chain: MEAVAKFDFTASGEDELSFHTGDVLKILSNQEEWFKAELGSQEGYVPKNFIDIQFPKWFHEGLSRHQAENLLMGKEVGFFIIRASQSSPGDFSISVRHEDDVQHFKVMRDNKGNYFLWTEKFPSLNKLVDYYRTNSISRQKQIFLRDRTREDQGHRGNSLDRRSQGGPHLSGAVGEEIRPSMNRKLSDHPPTLPLQQHQHQPQPPQYAPAPQQLQQPPQQRYLQHHHFHQERRGGSLDINDGHCGTGLGSEMNAALMHRRHTDPVQLQAAGRVTR
notes: Deletion of residues 274-328; also called lacking the C-SH3 domain; not shown: N-terminal MBP tag and its linker from pMAL-C5x (NEB)
B8: His-tagged Gads SH2 (His-SH2) (protein)
chain: MHHHHHHGSMQFPKWFHEGLSRHQAENLLMGKEVGFFIIRASQSSPGDFSISVRHEDDVQHFKVMRDNKGNYFLWTEKFPSLNKLVDYYRTNSISRQKQIFLRDRTREDQ
B9: full length MBP-tagged Gads (MBP-Gads), wild type (other, not shown: large carriers)
chain: T2 sequence with D92F
notes: Purified as monomeric and dimeric SEC fractions; also called full length Gads; Gads-MBP protein
B10: full length MBP-Gads F92A/R109A (other, not shown: large carriers; small tags and cut ends)
chain: T2 sequence with D92A, R109A
notes: Full length human Gads with double mutation; also called full length Gads F92A/R109A
B11: N-terminally twin-strep-tagged full length human Gads-GFP F92A/R109A (other)
chain: T2 sequence with D92A, R109A
notes: Expressed in dG32 T cells; also called Gads F92A/R109A; not shown: N-terminal twin-strep tag; C-terminal monomeric GFP (A206K) from pMIGR
B12: MBP-Gads lacking the C-terminal SH3 and linker (ΔC-SH3+linker, Δ154-328) (other)
chain: MEAVAKFDFTASGEDELSFHTGDVLKILSNQEEWFKAELGSQEGYVPKNFIDIQFPKWFHEGLSRHQAENLLMGKEVGFFIIRASQSSPGDFSISVRHEDDVQHFKVMRDNKGNYFLWTEKFPSLNKLVDYYRTNSISRQKQIFLRDRTREDQTR
notes: Deletion of residues 154-328; also called lacking the C-SH3 domain and the linker domain; not shown: N-terminal MBP tag and its linker from pMAL-C5x (NEB)
B13: phospho-LAT (endogenous, TCR-stimulated Jurkat-derived dG32 T cells) (other, UniProt O43561-2 1-233, looked up)
chain: MEEAILVPCVLGLLLLPILAMLMALCVHCHRLPGSYDSTSSDSLYPRGIQFKRPHTVAPWPPAYPPVTSYPPLSQPDLLPIPRSPQPLGGSHRTPSSRRDSDGANSVASYENEEPACEDADEDEDDYHNPGYLVVLPDSTPATSTAAPSAPALSTPGIRDSAFSMESIDDYVNVPESGESAEASLDGSREYVNVSQELHPGAAKTEPAALSSQEAEEVEEEGAPDYENLQELN
modifications: tyrosine-phosphorylated after anti-TCR (C305) stimulation; detected with anti-phospho-LAT (pY132)
notes: Endogenous protein in lysates; also called pLAT; pY132-phosphorylated LAT

Legend:
[1] = target: T1, monomeric Gads SH2; test: Size exclusion chromatography of monomeric Gads SH2 incubated with LAT peptides; format: binding; conditions: 0.7 μM MBP-Gads SH2 monomeric fraction, 5 μM peptide, 15 minutes on ice
Experimental: FIG. 9A is a schematic representation of two possible modes of Gads binding to 2pY-LAT. […] In FIG. 9C, 0.7 μM full length MBP-Gads from the monomeric fraction, was incubated for 15 minutes at 37° C., either alone (solid line), or in the presence of 5 μM 2pY-LAT peptide (SEQ ID NO: 32, dotted line). […] 20 μM MBP-Gads SH2 from the dimeric fraction was incubated for 30 minutes on ice (blue) or at 37° C. for 15 minutes (red, solid line), followed by an additional 15 minutes at 37° C. in the presence of 40 μM of 2pY-LAT (SEQ ID NO: 32, red dotted line); and then resolved by size exclusion chromatography.
Fast protein liquid chromatography (FPLC)—MBP- and His-tagged proteins were resolved by size exclusion chromatography at 12° C., using an ÄKTA FPLC system (GE Healthcare), fitted with Superdex 200 10/300 or 16/60 HiLoad for MBP-tagged proteins or Superdex 75 10/300 for His-tagged proteins, in column buffer containing 20 mM HEPES pH 7.3, 100 mM NaCl, 1 mM EDTA, 10% glycerol.
Two possible modes of Gads binding to 2pY-LAT were envisioned, single and paired (FIG. 9A). To ensure the availability of both modes, a 7-fold molar excess of 2pY-LAT peptide was applied. In the absence of cooperativity, the large molar excess of unbound SH2-binding sites should favor unpaired binding (FIG. 9A, left).

[2] = target: the molecule itself; test: size exclusion chromatography; self-association
[3] = target: pY171-LAT peptide (singly phosphorylated on Y171); test: ITC at 25 C, peptide injected into monomeric MBP-Gads SH2; KD = 1/KA, 1:1 model
[4] = target: pY171-LAT peptide (singly phosphorylated on Y171); test: isothermal titration calorimetry, 1:1 binding model (Affinimeter), linked-parameter analysis of three repeats
[5] = target: the molecule itself; test: size exclusion chromatography; self-association; remark: listed apart in the source
[6] = nano-DSF of dimeric MBP-Gads SH2, self-association
[7] = target: the molecule itself; test: analytical size exclusion chromatography of the dimeric fraction after incubation at 37°C; self-association
[8] = target: the molecule itself; test: size exclusion chromatography, self-association
[9] = nano-DSF of dimeric His-SH2, self-association
[10] = target: the molecule itself; test: size exclusion chromatography, Superdex 200 10/300 GL; self-association (dimer)
Experimental: Size-Exclusion Chromatography and Multi-Angle Light Scattering (SEC-MALS)—The average molecular weight of Gads proteins was determined by SEC-MALS. The system consisted of an ÄKTA avant 25, coupled to a UV detector (GE Healthcare) and a miniDAWN triple-angle light-scattering detector (Wyatt Technology). […] Data collection and analysis was performed with Wyatt's ASTRA 6.1.1 software.

[11] = target: the molecule itself; test: size exclusion chromatography; self-association; remark: listed apart in the source
[12] = target: B13; test: streptactin pull-down of twin-strep Gads-GFP from dG32 cell lysates, western blot with anti-pY132-LAT
[13] = target: T2, N-terminally twin-strep-tagged full …; test: as above

Molecule: DDpYVNVPESGESAEASLDGSREpYVNVSQE (DD[pY]VNVPESGESAEASLDGSRE[pY]VNVSQE) [2pY-LAT, 29-residue LAT peptide encompassing tyrosines 171 and 191, doubly phosphorylated]
- Gads mobility shift on size exclusion chromatography (paired binding / dimeric form) [1]: dramatic shift towards the dimeric form

Molecule: B1
- binding result [2]: no binding
- Kd [3]: 335 nM
- H [4]: -9.03 kcal/mol

Molecule: B2
- binding result [5]: binds

Molecule: B3
- binding result [5]: binds

Molecule: B4
- temperature of subtle transition of the dimeric form (nano-DSF) [6]: approximately 33 °C
- Kd [3]: 177 nM
- H [4]: -7.23 kcal/mol

Molecule: B5
- binding result [7]: binds

Molecule: B6
- binding result [8]: binds

Molecule: B7
- binding result [8]: binds

Molecule: B8
- temperature of monomerization (first nano-DSF transition) [9]: 32.5 °C

Molecule: B9
- binding result [10]: binds

Molecule: B10
- binding result [11]: no binding

Molecule: B11
- binding result [12]: no binding

Molecule: B12
- binding result [8]: binds

Molecule: B13
- binding result [13]: no binding
